From article PMC9482650, “Quantitative fragmentomics allow affinity mapping of interactomes” (Nature Communications, 2022)

What was measured:
Assay in all cases: holdup assay
Design in all cases: key: below the threshold = too weak to quantify, mostly under pKd 3.1 to 4
Conditions in all cases: plain residues with an end cap or a label only (N-terminal biotin on a linker: ttds)
Inadl_3, Q8NI35 = molecular target: Inadl_3, Q8NI35
PDZD7_3, Q9H5P4 = molecular target: T1, PDZD7_3, Q9H5P4
T1 sequence (Q9H5P4 857-944, limits assumed, looked up): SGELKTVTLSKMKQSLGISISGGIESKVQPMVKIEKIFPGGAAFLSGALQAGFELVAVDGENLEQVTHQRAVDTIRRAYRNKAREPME

HTRA1, Q92743 = molecular target: HTRA1, Q92743
PDZD2_2, O15018 = molecular target: T2, PDZD2_2, O15018
T2 sequence (O15018 329-429, limits assumed, looked up): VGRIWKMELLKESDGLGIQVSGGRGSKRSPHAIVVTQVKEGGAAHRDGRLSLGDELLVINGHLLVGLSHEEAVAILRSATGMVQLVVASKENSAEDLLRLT

MAGI2_2, Q86UL8 = molecular target: MAGI2_2, Q86UL8
Inadl_5, Q8NI35 = molecular target: Inadl_5, Q8NI35
IL16_3, Q14005 = molecular target: IL16_3, Q14005
HTRA3, P83110 = molecular target: T3, HTRA3, P83110
T3 sequence (P83110 354-453, limits assumed, looked up): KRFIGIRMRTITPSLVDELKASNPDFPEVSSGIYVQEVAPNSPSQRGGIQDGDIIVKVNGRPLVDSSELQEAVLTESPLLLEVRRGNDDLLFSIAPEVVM

FRMPD1, Q5SYB0 = molecular target: T4, FRMPD1, Q5SYB0
T4 sequence (Q5SYB0 52-145, limits assumed, looked up): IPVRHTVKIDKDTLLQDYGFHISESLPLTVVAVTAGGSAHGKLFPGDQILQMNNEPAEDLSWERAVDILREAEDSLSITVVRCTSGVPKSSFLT

SIPA1L2, Q9P2F8 = molecular target: T5, SIPA1L2, Q9P2F8
T5 sequence (Q9P2F8 945-1036, limits assumed, looked up): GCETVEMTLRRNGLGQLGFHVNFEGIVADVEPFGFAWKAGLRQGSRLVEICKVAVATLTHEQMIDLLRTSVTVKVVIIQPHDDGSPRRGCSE

FRMPD4, Q14CM0 = molecular target: FRMPD4, Q14CM0
TJP3_3, O95049 = molecular target: T6, TJP3_3, O95049
T6 sequence (O95049 375-456, limits assumed, looked up): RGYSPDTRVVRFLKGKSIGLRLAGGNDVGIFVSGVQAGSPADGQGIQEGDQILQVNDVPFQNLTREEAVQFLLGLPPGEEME

DLG3_2, Q92796 = molecular target: T7, DLG3_2, Q92796
T7 sequence (Q92796 221-321, limits assumed, looked up): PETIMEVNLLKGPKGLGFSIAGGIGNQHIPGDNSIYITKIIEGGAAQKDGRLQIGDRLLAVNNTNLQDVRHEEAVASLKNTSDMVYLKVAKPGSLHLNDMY

SNTG2, Q9NY99 = molecular target: T8, SNTG2, Q9NY99
T8 sequence (Q9NY99 68-166, limits assumed, looked up): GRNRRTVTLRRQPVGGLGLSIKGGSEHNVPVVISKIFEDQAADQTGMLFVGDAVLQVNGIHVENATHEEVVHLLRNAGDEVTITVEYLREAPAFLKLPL

GRIP2_7, Q9C0E4 = molecular target: GRIP2_7, Q9C0E4
TJP1_3, Q07157 = molecular target: TJP1_3, Q07157
NHERF4_4, Q86UT5 = molecular target: NHERF4_4, Q86UT5
APBA3_1, O96018 = molecular target: T9, APBA3_1, O96018
T9 sequence (O96018 389-490, limits assumed, looked up): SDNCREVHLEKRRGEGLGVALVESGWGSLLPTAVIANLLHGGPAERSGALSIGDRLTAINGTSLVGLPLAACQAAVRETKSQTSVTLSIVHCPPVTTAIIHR

HTRA2, O43464 = molecular target: HTRA2, O43464
LIMK2, P53671 = molecular target: LIMK2, P53671
MAGI2_6, Q86UL8 = molecular target: MAGI2_6, Q86UL8
FRMPD2_3, Q68DX3 = molecular target: FRMPD2_3, Q68DX3
GRIP1_5, Q9Y3R0 = molecular target: T10, GRIP1_5, Q9Y3R0
T10 sequence (Q9Y3R0 568-668, limits assumed, looked up): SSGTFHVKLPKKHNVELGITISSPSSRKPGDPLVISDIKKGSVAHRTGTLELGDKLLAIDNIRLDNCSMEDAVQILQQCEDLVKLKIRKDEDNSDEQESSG

GORASP1, Q9BQQ3 = molecular target: GORASP1, Q9BQQ3
LNX1_2, Q8TBB1 = molecular target: LNX1_2, Q8TBB1
GRIP1_4, Q9Y3R0 = molecular target: T11, GRIP1_4, Q9Y3R0
T11 sequence (Q9Y3R0 467-571, limits assumed, looked up): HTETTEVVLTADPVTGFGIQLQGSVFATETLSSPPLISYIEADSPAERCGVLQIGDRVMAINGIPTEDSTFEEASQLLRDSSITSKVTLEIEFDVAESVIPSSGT

Chain of LIMK2, P53671 (P53671 143-248): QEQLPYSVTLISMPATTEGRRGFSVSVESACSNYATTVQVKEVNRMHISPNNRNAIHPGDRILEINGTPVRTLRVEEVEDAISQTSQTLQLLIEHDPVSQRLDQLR
Chain of HTRA1, Q92743 (Q92743 360-477): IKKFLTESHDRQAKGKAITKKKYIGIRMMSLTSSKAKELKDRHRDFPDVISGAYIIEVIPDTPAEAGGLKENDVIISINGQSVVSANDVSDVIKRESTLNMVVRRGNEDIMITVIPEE
Chain of TJP1_3, Q07157 (Q07157 416-512): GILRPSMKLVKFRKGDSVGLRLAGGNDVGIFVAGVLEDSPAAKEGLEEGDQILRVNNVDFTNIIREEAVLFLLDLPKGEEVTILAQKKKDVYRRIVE
Chain of LNX1_2, Q8TBB1 (Q8TBB1 371-470): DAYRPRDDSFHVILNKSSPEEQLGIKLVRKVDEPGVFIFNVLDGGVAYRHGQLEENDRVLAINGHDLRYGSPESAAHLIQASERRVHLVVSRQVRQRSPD
Chain of FRMPD2_3, Q68DX3 (Q68DX3 1073-1166): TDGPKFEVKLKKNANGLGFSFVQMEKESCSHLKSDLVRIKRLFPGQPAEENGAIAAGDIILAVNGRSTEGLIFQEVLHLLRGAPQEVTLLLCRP
Chain of Inadl_5, Q8NI35 (Q8NI35 673-780): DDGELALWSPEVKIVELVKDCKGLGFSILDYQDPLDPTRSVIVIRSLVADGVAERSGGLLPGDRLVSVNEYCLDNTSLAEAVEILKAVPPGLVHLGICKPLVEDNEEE
Chain of FRMPD4, Q14CM0 (Q14CM0 67-160): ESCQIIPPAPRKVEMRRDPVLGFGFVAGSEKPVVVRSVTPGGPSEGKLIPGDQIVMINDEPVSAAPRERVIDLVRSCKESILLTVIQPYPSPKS
Chain of MAGI2_6, Q86UL8 (Q86UL8 1141-1229): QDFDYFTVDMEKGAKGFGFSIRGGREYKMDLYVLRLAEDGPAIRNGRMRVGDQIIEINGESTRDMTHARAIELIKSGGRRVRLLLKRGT
Chain of MAGI2_2, Q86UL8 (Q86UL8 410-522): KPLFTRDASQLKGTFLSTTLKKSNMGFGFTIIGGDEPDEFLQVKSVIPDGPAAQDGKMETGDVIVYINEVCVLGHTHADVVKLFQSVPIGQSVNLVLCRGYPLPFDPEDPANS
Chain of HTRA2, O43464 (O43464 355-458): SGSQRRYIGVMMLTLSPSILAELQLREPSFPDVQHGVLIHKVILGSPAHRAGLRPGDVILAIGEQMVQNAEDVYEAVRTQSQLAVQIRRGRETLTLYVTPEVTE
Chain of Inadl_3, Q8NI35 (Q8NI35 359-469): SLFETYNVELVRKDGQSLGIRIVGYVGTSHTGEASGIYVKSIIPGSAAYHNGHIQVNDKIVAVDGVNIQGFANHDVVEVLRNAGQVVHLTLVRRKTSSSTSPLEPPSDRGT
Chain of IL16_3, Q14005 (Q14005 1107-1207): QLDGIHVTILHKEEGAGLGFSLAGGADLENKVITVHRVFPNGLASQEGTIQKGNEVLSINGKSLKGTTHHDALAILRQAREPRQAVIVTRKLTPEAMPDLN
Chain of NHERF4_4, Q86UT5 (Q86UT5 464-550): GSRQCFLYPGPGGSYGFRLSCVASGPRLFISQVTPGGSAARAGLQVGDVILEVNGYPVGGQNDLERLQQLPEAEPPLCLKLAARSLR
Chain of GORASP1, Q9BQQ3 (Q9BQQ3 1-208): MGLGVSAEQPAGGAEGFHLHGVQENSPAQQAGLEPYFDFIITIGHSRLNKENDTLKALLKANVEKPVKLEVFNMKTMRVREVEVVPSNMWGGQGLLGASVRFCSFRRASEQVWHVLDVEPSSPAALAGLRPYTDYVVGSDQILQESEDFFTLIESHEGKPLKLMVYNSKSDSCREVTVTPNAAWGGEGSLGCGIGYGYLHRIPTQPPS
Chain of GRIP2_7, Q9C0E4 (Q9C0E4 934-1023): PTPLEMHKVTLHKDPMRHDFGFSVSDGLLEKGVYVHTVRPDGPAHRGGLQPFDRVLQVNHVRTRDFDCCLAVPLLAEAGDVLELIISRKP

In the case of RLPKIKETTV [FRMPD4, Q14CM0], the pKd (Inadl_3, Q8NI35) is reported as “below the threshold”, the pKd (PDZD7_3, Q9H5P4) is reported as 5.01 and the pKd (HTRA1, Q92743) is reported as 3.64. The pKd (PDZD2_2, O15018) was 4.05, the pKd (MAGI2_2, Q86UL8) was 4.73 and the pKd (Inadl_5, Q8NI35) was “below the threshold”. The pKd (IL16_3, Q14005) was “below the threshold”, the pKd (HTRA3, P83110) was “below the threshold” and the pKd (FRMPD1, Q5SYB0) was “below the threshold”. For the same binder, the pKd (SIPA1L2, Q9P2F8) was “below the threshold”, the pKd (FRMPD4, Q14CM0) was 3.4 and the pKd (TJP3_3, O95049) was “below the threshold”. The pKd (DLG3_2, Q92796) was 5.6, the pKd (SNTG2, Q9NY99) was 5.3 and the pKd (GRIP2_7, Q9C0E4) was “below the threshold”. For the same binder, the pKd (TJP1_3, Q07157) was “below the threshold”, the pKd (NHERF4_4, Q86UT5) was “below the threshold” and the pKd (APBA3_1, O96018) was “below the threshold”. The pKd (HTRA2, O43464) was “below the threshold”, the pKd (LIMK2, P53671) was “below the threshold” and the pKd (MAGI2_6, Q86UL8) was 3.98. For the same binder, the pKd (FRMPD2_3, Q68DX3) was “below the threshold”, the pKd (GRIP1_5, Q9Y3R0) was “below the threshold” and the pKd (GORASP1, Q9BQQ3) was “below the threshold”. For the same binder, the pKd (LNX1_2, Q8TBB1) was 3.42 and the pKd (GRIP1_4, Q9Y3R0) was “below the threshold”.

EVVHTPETSV [SLC16A3, O15427] was tested, and the pKd (Inadl_3, Q8NI35) was “below the threshold”, the pKd (PDZD7_3, Q9H5P4) was 4.45 and the pKd (HTRA1, Q92743) was “below the threshold”. The pKd (PDZD2_2, O15018) was 4.26, the pKd (MAGI2_2, Q86UL8) was “below the threshold” and the pKd (Inadl_5, Q8NI35) was “below the threshold”. For the same binder, the pKd (IL16_3, Q14005) was “below the threshold”, the pKd (HTRA3, P83110) was “below the threshold” and the pKd (FRMPD1, Q5SYB0) was “below the threshold”. For the same binder, the pKd (SIPA1L2, Q9P2F8) was “below the threshold”, the pKd (FRMPD4, Q14CM0) was “below the threshold” and the pKd (TJP3_3, O95049) was “below the threshold”. For the same binder, the pKd (DLG3_2, Q92796) was 4.08, the pKd (SNTG2, Q9NY99) was 4.55 and the pKd (GRIP2_7, Q9C0E4) was “below the threshold”. The pKd (TJP1_3, Q07157) was “below the threshold”, the pKd (NHERF4_4, Q86UT5) was “below the threshold” and the pKd (APBA3_1, O96018) was “below the threshold”. The pKd (HTRA2, O43464) was “below the threshold”, the pKd (LIMK2, P53671) was “below the threshold” and the pKd (MAGI2_6, Q86UL8) was 4.14. For the same binder, the pKd (FRMPD2_3, Q68DX3) was “below the threshold”, the pKd (GRIP1_5, Q9Y3R0) was “below the threshold” and the pKd (GORASP1, Q9BQQ3) was “below the threshold”. The pKd (LNX1_2, Q8TBB1) was “below the threshold” and the pKd (GRIP1_4, Q9Y3R0) was “below the threshold”.

For RLQRRRETQV [HPV18-E6, P06463], the pKd (Inadl_3, Q8NI35) was “below the threshold”, the pKd (PDZD7_3, Q9H5P4) was 3.98 and the pKd (HTRA1, Q92743) was “below the threshold”. The pKd (PDZD2_2, O15018) was 3.36, the pKd (MAGI2_2, Q86UL8) was 5.16 and the pKd (Inadl_5, Q8NI35) was 3.52. For the same binder, the pKd (IL16_3, Q14005) was “below the threshold”, the pKd (HTRA3, P83110) was “below the threshold” and the pKd (FRMPD1, Q5SYB0) was “below the threshold”. The pKd (SIPA1L2, Q9P2F8) was “below the threshold”, the pKd (FRMPD4, Q14CM0) was “below the threshold” and the pKd (TJP3_3, O95049) was “below the threshold”. For the same binder, the pKd (DLG3_2, Q92796) was 5.46, the pKd (SNTG2, Q9NY99) was 4.03 and the pKd (GRIP2_7, Q9C0E4) was “below the threshold”. The pKd (TJP1_3, Q07157) was “below the threshold”, the pKd (NHERF4_4, Q86UT5) was “below the threshold” and the pKd (APBA3_1, O96018) was “below the threshold”. The pKd (HTRA2, O43464) was “below the threshold”, the pKd (LIMK2, P53671) was “below the threshold” and the pKd (MAGI2_6, Q86UL8) was “below the threshold”. For the same binder, the pKd (FRMPD2_3, Q68DX3) was “below the threshold”, the pKd (GRIP1_5, Q9Y3R0) was “below the threshold” and the pKd (GORASP1, Q9BQQ3) was “below the threshold”. The pKd (LNX1_2, Q8TBB1) was “below the threshold” and the pKd (GRIP1_4, Q9Y3R0) was “below the threshold”.
